Positions of bridges follow the written chain, without caps; N, C: chain ends. No end group written: not given here.
Key:
[1] = target: human BKα channel ZERO isoform (human) (UniProt Q12791); test: cell-based or functional assay
[2] = target: human BKα channel ZERO isoform (human) (UniProt Q12791); test: phagemid display panning, positive selection on HEK293 cells expressing human BKα ZERO; enrichment over the theoretical frequency in the library

Binder	suppression of channel openings (patch clamp, HEK293 cells) (fraction of openings suppressed) [1]	fold enrichment of its motifs in the phagemid panning [2]	probability of opening, combination of pskan1 and pskan4, 10 microM, outside-out patches [1]
CRRGLVQVC (disulfide 1-9; also: TFA salt) [LS3]	0.67	> 1000 fold	
CPPGRGAVC (disulfide 1-9) [LS4]			1.6 fold
CARGVYRVC (disulfide 1-9) [LS1]			1.6 fold

Source: patent publication US20220194987A1
